Measured values from publication PMC5741103.

Key:
SLMAP [1] = target: SLMAP (UniProt Q14BN4); assay: co-IP, FLAG-MST2 and V5-SLMAP; settings: reference: wild type MST2; sites T325,T336,T378
SLMAP [2] = target: SLMAP (UniProt Q14BN4); assay: co-IP, MST2 variants and V5-SLMAP

Substance | binding against the reference (SLMAP [1]) | binding against the reference (SLMAP [2]; reference: MST2-6A/325T, sites T325) | binding against the reference (SLMAP [2]; reference: MST2-6A/336T, sites T336) | binding against the reference (SLMAP [2]; reference: MST2-6A/378T, sites T378)
MST2 (from UniProt Q13188) MST2-3A | lost | – | – | –
MST2 (from UniProt Q13188) MST2-7A | – | lost | lost | lost
